Publication PMC3327674, “Structural and Functional Characterization of Mature Forms of Metalloprotease E495 from Arctic Sea-Ice Bacterium Pseudoalteromonas sp. SM495” (PLoS ONE, 2012)
One block for each binder: values may come before it.

Biological target: C-phycocyanin, Q54715;Q54714
Assay: SPR
Details: chain shown with the change, 2 µM analyte, 20 µl/min, 25°C, CPC-coated chip, read off a plot

response (parent: est. 53): 35 RU
B1: GST-fused PPC2 domain of metalloprotease E495 F5A (protein)
chain: GWTRATQNLDAGYSSLDISMAGGSGDADLYVNFGSASSTSSYECRPYKNGNVETCTIENPQAGTWYIDLQG

response (parent: est. 57): 33 RU
B2: GST-fused PPC1 domain of metalloprotease E495 F5A (protein)
chain: EQLFATLDVPAGASNLVFNTNGGSGDADLYVRFGSKPTLSTYDCNSTTSTSTESCSIGSAQAGTYYVMVEA
